Experimental data from US20220332804A1 (CSL INNOVATION, published 2022).
Residue numbers refer to the chain shown, from its start.

Legend:
Assay in all cases: SPR, KD relative to WT C2;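 note: biacore SPR at 37 °C, anti-C2 mAbs captured on anti-human IgG chips with alanine or serine point mutants of C2 as analyte, KD from 1:1 fit compared with wild-type C2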
human C2 E324A = target: T1, human C2 E324A (human, UniProt P06681 21-752)
T1 sequence: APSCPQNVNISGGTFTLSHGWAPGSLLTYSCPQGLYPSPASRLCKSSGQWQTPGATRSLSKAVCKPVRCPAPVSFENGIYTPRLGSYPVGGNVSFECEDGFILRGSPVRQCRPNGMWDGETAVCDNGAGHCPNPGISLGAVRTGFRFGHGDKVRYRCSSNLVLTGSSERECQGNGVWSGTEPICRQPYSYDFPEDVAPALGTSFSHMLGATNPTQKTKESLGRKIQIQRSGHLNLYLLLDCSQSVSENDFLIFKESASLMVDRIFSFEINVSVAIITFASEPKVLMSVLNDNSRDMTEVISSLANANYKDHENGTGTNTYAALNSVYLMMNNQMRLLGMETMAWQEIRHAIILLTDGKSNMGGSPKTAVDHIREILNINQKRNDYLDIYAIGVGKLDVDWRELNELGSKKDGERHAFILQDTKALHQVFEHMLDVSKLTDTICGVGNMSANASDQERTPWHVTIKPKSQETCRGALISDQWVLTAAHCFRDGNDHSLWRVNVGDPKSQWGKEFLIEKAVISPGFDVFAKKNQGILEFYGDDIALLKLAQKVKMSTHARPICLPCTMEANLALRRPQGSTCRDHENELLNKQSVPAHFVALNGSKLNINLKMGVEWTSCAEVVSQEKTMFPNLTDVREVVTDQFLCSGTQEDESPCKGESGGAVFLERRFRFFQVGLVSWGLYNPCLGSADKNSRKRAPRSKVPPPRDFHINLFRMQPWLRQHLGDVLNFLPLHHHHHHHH

human C2 M316A = target: T2, human C2 M316A (human, UniProt P06681 21-752)
T2 sequence: T1 sequence with M296A, A304E

[1] = target: T3, human complement C2 (wild type) (human, UniProt P06681 21-752)
T3 construct: Full-length human C2 (NP_000054) with C-terminal 8x His tag, secreted from Expi293F cells and purified from the supernatant; also called WT; huC2
T3 sequence: T1 sequence with A304E

B1: RF16-242 (antibody, human IgG4 S228P, lambda, V domains shown)
VH: EVQLLQSGAEVKKPGESLKISCKGSGYSFTSYWIGWVRQMPGKGLEWMGIIYPGDSDTRYSPSFQGQVTISADKSISTAYLQWSSLKASDTAMYYCARRGHYGDYFDYWGQGTLVTVSS
VL: SYELTQPPSVSVSPGQTARITCSGDALPKKYAYWYHQKSGQAPVLVIYEDRRRPSEIPERFSGSSSGTMATLTITGAQVEDEGVYFCYSRDRAGNQRVFGGGTQLTVLG
notes: pH-dependent anti-C2 antibody from a phage display library
- Fold diff (human C2 E324A): 2 fold
- Fold diff (human C2 M316A): 1 fold
- Fold diff [1]: 1 fold
